# Measured values: the nanobody polyreactivity screen of Harvey et al. (2022)
# Experiment: yeast display, Sf9 membrane polyspecificity reagent, FACS + sequencing; frameworks hold sequencing errors
# Procedure, shortened: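 Synthetic nanobody libraries on Saccharomyces cerevisiae BJ5465 were galactose-induced for 36–48 hours, stained 1 hour at 4 °C with 10% biotinylated, detergent-solubilized Sf9 membrane reagent and enriched on streptavidin microbeads. FACS then separated cells into low and high (top ~1%) gates by anti-HA (expression) and streptavidin (reagent binding) fluorescence. Genes were colony-PCR amplified, MiSeq 2 × 250 sequenced and CDR-length filtered. A clone's polyreactivity label is that of its gate of origin.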
row,Sequence,polyreactivity (PSR sort gate)
1,QVQLVESGGGLVQAGGSLRLSCAASGSTFEFYAMGWYRQAPGKERELVAAISSIGGSTYYADSVKGRFTISRDNAKNTVYLQMNSLKPEDTAVYYCAATSDSSLYVYWGQGTQVTVSS,low polyreactivity
2,QVQLVESGGGLVQAGGSLRLSCAASGRTFTGYAMGWYRQAPGKERELVAAITRSGTRTYYADSVKGRFTISRDNAKNTVYLQMNSLKPEDTAVYYCAAADTQGVSMDYWGQGTQVTVSS,high polyreactivity
3,QVQLVESGGGLVQAGGSLRLICAASGSIFRSYAMGWYRPAPGKERELVAAISSGGRTKYADSVKGRLTISRDNAKNTVYLQMNSLKPEDSAVYYCAARSVSATADFHYWGQGTQVTVSS,high polyreactivity
4,QVQLVESGGGLVQAGGSLRLSCAASGYTFKRYAMGWSRQAPGKERELVAAISSSGSSTYYADSVKGRFTISRDNAKNTVYLQMNSLKPEDTAVYYCAAVYRYGYWGQGTQVTVSS,high polyreactivity
5,QVELVESGGGLVQAGGSLRLSCAASGGTFYRYAMGWYRQAPGKEREFVASITQRGGRTYYADSVMGRFTISRDNAKNTVYLQMNSLIPEDTACYYCAAQGYKYWHGDGSDYWGQGSQVTVSS,high polyreactivity
6,QDQLVQSAGGLVQAGGSLRLSCAASGRTIRAYAMGWYRQAPGKEREFVAAITWGDGSTYYADSVNGRFTISRDNAKNTVYLQMKSLKPEDTAVYYCATVQSCRVRTYDYWGQGTQVSVSS,high polyreactivity
7,QVHLVESGGVLVQAGGSLRLSCAASGRIFSYYAMGWYRQAPGKEREMVAAISWTVGSTYYADSVKGRFTISRDNAINTVYLQMNSLYPEDTAVFYCAAAYGWSWYRYDYWGQGTQVTVSS,high polyreactivity
8,QVQLVESGGGLVQAGGSLRLSCAASGRTFWFYTMGWYRQAPGKERELVADIRRSGGSTYYADSVKGRFTISRDNAKNTVYLQMNSLKPEDTAVYYCASDPRRLAAGYTRYVYWGQGTQVTVSS,high polyreactivity
9,QVQLVESGGGLVQAGGSLRLSCDAAGLIFRLNAMGWYRPAPGKERELVAAISFSGGGTYYADSVKGRFTISRDNAKNTVYLQMNSLKPEDTAVYFCAADEYAVYYYYNYEYWGQGTQVTVSS,high polyreactivity
10,QVQLVESGGGLVQAGGSLRLSCAASGSTSLYNMGWYRQAPGKERELVAAIDSGSTNYADSVKGRFTISRDNAKNTVYLQMNSLKPEDTAVYYCAADGTNIGVYDRASYRDDYWGQGTQVTVSS,low polyreactivity
11,QVQLVESGGGLVQAGGSLRLSCAASGSIFKYNAMGWYRQAPGKERELVAAITIGGRTYYADSVKGRFTISRDNAKNTVYLQMNSLKPEDTAVYYCAGVVRALTIKYGYWGQGTQVTVSS,high polyreactivity
12,QVQLVDSGGGLVQAGASLRLSCAASGSIFRFYAMGWYRQAPGKERELVAAITSRGSTNYADSVKGRFTISRDNAKNTVYLQMKSLKPEDTAVYYCAAELVYFVIYDYWGLGTQVTVSS,low polyreactivity
13,QVQHVESGGGLVQAGGSLRLSCAASGRTFLKNAMGWYRHAPVKERELVAAITSGGSTNYADSVKGRFTISRDNAKNTVYIQMNSLKPEDTAVYYCNAPSYWYYPVLGSFLTFDYWGQGTQVTVSS,low polyreactivity
14,QVQLVESGGGLVQAGGRLRLSCAASGSTFKAYAMGWYRQAPGKERELVAAISSGGSRTYYADSVKGRFTISRDNAKITVYLQMHRLKPEDIEVYYCAARKADTVFKFEYWGQGTLVTVSS,high polyreactivity
15,QVQIVESGGGLVQAGGSLRLSCAASGFTFVYYAMGWYRQAPGKERELVAAISKRGGSTYYADSVKGRFTISRDNAKNTVYLQMNSLKPEDTAVYYCNAGYGRWQRHDYWGQGTLVTVSS,high polyreactivity
16,QVQLVESGGGLVQAGGSLRLSCAASGSIIDLYAMGWYRQAPGKERELVAAISFSGGSTYYADSVKGRFTISRDNAKNTVYLQMNSLKPEDTAVYYCAKDVRRTLRFRAFDYWGQGTQVSVSS,low polyreactivity
17,QVQLVESGGGLVQAGGSLRFSSAASGSIFQSYPMGLYRPAPGKERELVAAITRSGGRTYYADSVKGRFTISRDNAKNTVYLQMNSLKPEDTAVYYCAAFGWGYGYWGQGTQVTVSS,high polyreactivity
18,QVQLVESGGGLVQAGGSLRLSCAASGSIFGQNAMGWYRQAPGKERELVAAITTSRGSTYYADSVKGRFTISRDNPKNTVDFQMNSLNPEDTAVYYCAARYVTPGYIIYVYWGQGTQVTVSS,high polyreactivity
19,QVQLVESGGGLVQAGGSLRLSCAASGSTFQGNAMGWYRQAPGKERELVAAISKRGGSTYYADSVKGRFTISRDNAKNTVYLQMNSLKPEDTAVYFCNAKLFASRGYYFGGAYQYGYWGQGTQVTVSS,high polyreactivity
20,QVQLVESGGGLVQAGRSLRLSCAASGRTLHQYDMGWFRQAPGKEREFVAVIDSSDGSTYYADSVKGRFTISRDNVKNTVYLQMNSLKPEDSAVYYCLGGYYYLQYDYWGQGTQVTVSS,low polyreactivity
21,QVQLVESGGGLVQAGGSLRLSCAASGSTFYHYAMGWYRQAPGKERELVAAISWSGGSTYYADSVKGSFTISRDNAKNTVYLLMYSLKPEDTAVYYCNALLSGLTSTEYDYWGQGTQVTVSS,high polyreactivity
